Consider one molecule from patent US20170145112A1 (Genentech, published 2017).

Test [1] concerns the target T1, Human complement Factor D, mature (human, UniProt P00746 27-253).
T1 construct: In the TR-FRET assay the factor D was bought from Complement Technology; In the hemolysis assay it was the factor D of C1q-depleted human serum; also called human Factor D; hFD
As to the kind of experiment: SPR, at the limit of detection.
Target sequence in this assay (P00746 27-253): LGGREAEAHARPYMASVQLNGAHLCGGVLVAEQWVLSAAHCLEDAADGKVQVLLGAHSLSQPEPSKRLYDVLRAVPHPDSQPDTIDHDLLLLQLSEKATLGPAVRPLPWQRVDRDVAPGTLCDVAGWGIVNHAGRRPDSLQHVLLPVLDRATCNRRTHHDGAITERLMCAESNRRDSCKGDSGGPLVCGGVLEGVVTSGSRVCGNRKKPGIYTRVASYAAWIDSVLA
Description: (§1) Kinetics and binding constant KD for Factor D binding to immobilized hu20D12 versions was determined by surface plasmon resonance (SPR) measurements on a Biacore®T200 instrument. […] After subtraction of the sensorgram observed for injection of running buffer, data were analyzed according to a 1:1 model using BiaEval software v4.1 (GE Healthcare) to extract the kinetics and affinity constants.

The target of test [2] is T1, Human complement Factor D, mature. The test is described as follows: SPR (Biacore T200): Fab captured with anti-huFab kit, human Factor D injected, 25 C, 1:1 model.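 Note: sensorgrams were corrected by subtracting a blank injection of running buffer before fitting kinetic and affinity constants.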 For orientation: Surface plasmon resonance follows binding to a sensor surface in real time, without labels.
Target sequence in this assay (P00746 27-253): as above
Description: as §1
Test [3] addresses T2, Cynomolgus monkey complement Factor D (cynomolgus monkey, UniProt P00746 26-253 (human entry)).
T2 construct: also called cyfD; cFD
T2 chain: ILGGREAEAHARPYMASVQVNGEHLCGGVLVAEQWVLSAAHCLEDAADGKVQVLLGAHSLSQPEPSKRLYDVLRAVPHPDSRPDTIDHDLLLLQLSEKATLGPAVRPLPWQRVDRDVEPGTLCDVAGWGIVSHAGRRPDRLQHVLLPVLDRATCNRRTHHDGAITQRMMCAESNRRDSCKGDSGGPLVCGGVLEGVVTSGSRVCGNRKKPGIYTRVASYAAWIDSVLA
The test is described as follows: SPR, cynomolgus monkey factor D.

The target of test [4] is T1, Human complement Factor D, mature. As to the kind of experiment: cell-based or functional assay.
Test [5] has the same target. As to the kind of experiment: cell-based or functional assay. This is another data set of the same source.
Target sequence in this assay (P00746 27-253): as the sequence (P00746 27-253) above
Test [6] shares this target. The test is described as follows: SPR, Fab captured by anti-huFab, human Factor D injected.

Some results are limits rather than exact numbers.

B1: hu20D12.v2.1 Fab (Fab, V domains shown)
VH: EVQLVQSGAEVKKPGASVKVSCKASGYTFTSYYMYWVRQAPGQGLEWIGEINPTSGGTNFNEKFKSRATLTVDTSTSTAYLELSSLRSEDTAVYYCAREGGFAYWGQGTLVTVSS
VL: DIQMTQSPSSLSASVGDRVTITCKASQNVDTDVAWFQQKPGKAPKGLIRSASSRYSGVPSRFSGSGSGTDFTLTISSLQPEDFATYYCQQYNNYPLTFGQGTKVEIKR
In test [1], B1 returned a Kd of about 0.01 nM. In test [2], this molecule yielded a Kd of under 0.01 nM, a koff of 8.1e-05 s⁻¹ and a kon of 1.2e+07 M⁻¹ s⁻¹. In test [3], the Kd stood at 0.017 nM, the “fold improvement of affinity relative to hu20D12.v2.0” value is about 10 fold and the “fold improvement of affinity relative to lampalizumab” value is 2 fold. Besides, in test [4], the “FRET IC50 (TR-FRET assay of Factor D-dependent factor B activation), value 1 of 2 in the cell” value stood at 0.033 nM and the “FRET IC50 (TR-FRET assay of Factor D-dependent factor B activation), value 2 of 2 in the cell” value came out at 0.032 nM. Also, the “IC50, TR-FRET assay of Factor D (50 pM) cleavage of factor B” value in test [5] turned out to be 32 pM. For the same molecule, the “fold improvement in binding relative to hu20D12.v2.0” value in test [6] is at least 4 fold.

As a reminder, the Kd is a measure of binding affinity in units of concentration. As usually defined, the koff is a measure of how fast the partners let go of each other. By kon is commonly meant the rate constant with which the complex forms.
